{"source": "the DeepSol protein solubility set", "data": [{"assay": "soluble on expression in E. coli; label from the status in PepcDB or PDB records", "values": [{"sequence": "MPVDTKTVLVVRHGTAGRRSRYKGDDRKRPLDKRGRAQAEALVAQLMAFGATTLYAADRVRCHQTIEPLAQELDQLIHNEPLLTEEAYAADHKAARKRLLEIAGRPGNPVICTQGKVIPGLIEWWCERAKVRPETTGNRKGSTWVLSLSDGELVGADYLSPPDEKLEHHHHHH", "soluble on expression in E. coli": "not soluble"}, {"sequence": "MAMDTIAFAYMGGKEYEWLFFEVYDRVRRFYRDVRLPINIVYAGKIILPPGTLIRVETASGFVNMYSFEAVVEALYGKLVEMRDDVNDDSITKIFGITTFPIGSRDRYFDIYKKYLGIQVNVGDYHVLALSIKPFFTENKYLFIERVFKGVLHEIGHLYGLSHCHEDCVMNPPKDIKDWDLRTPTYCNTCLRKLKNKEELMPKLQLLEHHHHHH", "soluble on expression in E. coli": "not soluble"}, {"sequence": "GPGSMLQSLVNSIVFVPPRDPNSLQRVQLLQRKRHMSFTSKKSGERISYFHFDPKGDLVTKDNPERVVRSSMVLLFHHGNAEDLGSAFSYAQSMACVFGVAVVVYDYCGYGFSGFPDAAKPAEVTEKSVYSDADHMYAHLLSLGYPAHRIIIVGRSVGGGPACYLAEKHHKKVGGLVLISTFTSCLRVVSSCCLPYLCCCVDLFPNYRRIEHIMECPVLVMHGTHDNVVPHHCSSELLEDIVARRNNALQRLLKKREGARANQAKRSSVLGAASTGPTNTTTASATIIVADEALVTAQPPLDGETVSVFDLYRRAYDGLPEAVRRVAEGRLDVTAADASIGVFHRWFAGCGHNDIEAREGHAFSDMFDYFVRFSTAFSMEREALLLAKPVTGAAKASRDSLNRADSEVRE", "soluble on expression in E. coli": "not soluble"}, {"sequence": "MDGRRLVVRHGADTSVDTVWNILTDTDCWADWGPSVTAVETATRYIDDGTTGRVCVAGAVWLPFEVTACTPYRWTWTVARLPATGHFVEERAGGSVVGFEIPPLATGYAPVCARACQRIATLAQQRDALEHHHHHH", "soluble on expression in E. coli": "soluble"}, {"sequence": "MNNMSLSDIFERFDTSKDGKISWEEFRDAIHALSPSIPSEKLVEMFIQLDTNGDGQVDAAKFASCMDQTAQSSGGDVEKELKDAFKLYDINCDGKISANELHVVMTRLGEKCTVESCVGMVQAIDVDGDGYIRFVGV", "soluble on expression in E. coli": "soluble"}, {"sequence": "MTAFIKFDGKKSSDFDLRIINDVEHDSSFYDVDQVKVPGRDGVVLKDNKRLEAIERSYPLRLYSKRRLTEVETDISNWLNVKGWKDLELSWEPDYIYKATHITPFSIKEVLRNFGRLKINFLIHPIKYLKTGKQEVPLVNGGTLQNPGNVQAKPILKIKGTGNGILTINDFETGLENVQSELVIDMERHLVYKDVLSAWDNIVRTERHRMPLFDVGQNKISWTGSFTITAVPNWGVKV", "soluble on expression in E. coli": "soluble"}, {"sequence": "MAHHHHHHMDSEPFAFDGEGSRARQSEYVDMTLVHLGMKLRDMGIAFEDMELATVPTQFAEQLLSYIEAFEERESAIRAATTEHRAQLEQEQKRLESLQEATEKARGEVAILSERISSALSAFRGEEKLEAQHRRERQRDVQDIVRQIEKKELELRRETMERDRLSKMLKKVKK", "soluble on expression in E. coli": "soluble"}, {"sequence": "MGKMIPYVIDLDAIFDLSSIEIYRLLTSSLSNVRYYPPKDLLKTVINDFDISKFKPFPDSQYLEELNYRARIYVITNLPKIEAKLLLVRYNLDAFIQDVISPEDINRYFPSKEVLVLISRKTNSPLGSITFITPHIDYAILTSNLGMRTILIRNSISLPRDIRVEIRKSLVELAEITAQHKIDSEAGDSALRCQ", "soluble on expression in E. coli": "not soluble"}, {"sequence": "MARLAAFDMDGTLLMPDHHLGEKTLSTLARLRERDITLTFATGRHALEMQHILGALSLDAYLITGNGTRVHSLEGELLHRDDLPADVAELVLYQQWDTRASMHIFNDDGWFTGKEIPALLQAFVYSGFRYQIIDVKKMPLGSVTKICFCGDHDDLTRLQIQLYEALGERAHLCFSATDCLEVLPVGCNKGAALTVLTQHLGLSLRDCMAFGDAMNDREMLVSVGSGFIMGNAMPQLRAELPHLPVIGHCRNQAVSHYLTHWLDYPHLPYSPE", "soluble on expression in E. coli": "soluble"}, {"sequence": "GKNVMVEPHRHEGVFICRGKEDALVTKNLVPGESVYGEKRVSISEGDDKIEYRAWNPFRSKLAAAILGGVDQIHIKPGAKVLYLGAASGTTVSHVSDIVGPDGLVYAVEFSHRSGRDLINLAKKRTNIIPVIEDARHPHKYRMLIAMVDVIFADVAQPDQTRIVALNAHTFLRNGGHFVISIKANCIDSTASAEAVFASEVKKMQQENMKPQEQLTLEPYERDHAVVVGVYRP", "soluble on expression in E. coli": "soluble"}, {"sequence": "MHFETVIGLEVHVELKTDSKMFSPSPAHFGAEPNSNTNVIDLAYPGVLPVVNKRAVDWAMRAAMALNMEIATESKFDRKNYFYPDNPKAYQISQFDQPIGENGYIDIEVDGETKRIGITRLHMEEDAGKSTHKGEYSLVDLNRQGTPLIEIVSEPDIRSPKEAYAYLEKLRSIIQYTGVSDVKMEEGSLRCDANISLRPYGQEKFGTKAELKNLNSFNYVRKGLEYEEKRQEEELLNGGEIGQETRRFDESTGKTILMRVKEGSDDYRYFPEPDIVPLYIDDAWKERVRQTIPELPDERKAKYVNELGLPAYDAHVLTLTKEMSDFFESTIEHGADVKLTSNWLMGGVNEYLNKNQVELLDTKLTPENLAGMIKLIEDGTMSSKIAKKVFPELAAKGGNAKQIMEDNGLVQISDEATLLKFVNEALDNNEQSVEDYKNGKGKAMGFLVGQIMKASKGQANPQLVNQLLKQELDKRLEHHHHHH", "soluble on expression in E. coli": "soluble"}, {"sequence": "MANYPKELPAQTQSRQPGIESEMNPSPVYEYEDYKGADKLKGKVALITGGDSGIGRAVSVAYAKEGADIAIVYKDEHEDAEETKKRVEQEGVKCLLIAGDVGEEEFCNEAVEKTVKELGGLDILVNNAGEQHPKESIKDITSEQLHRTFKTNFYSQFYLTKKAIDYLKPGSAIINTTSINPYVGNPTLIDYTATKGAINAFTRTMAQALVKDGIRVNAVAPGPIWTPLIPATFPEETVAQFGQDTPMGRPGQPVEHVGCYVLLASD", "soluble on expression in E. coli": "not soluble"}, {"sequence": "MKEEEKTRLVIVQGPTASGKSALALELAERIGGEIVNADSMQVYRGMDIGTAKPSQEERRRVPHHLYDIVDPKVNFTAADFREHASRAIADIERRGKRVILVGGTGLYIRILTQGLVASPGGDDNIRRELEDQAHGEGLESLHRRLAAVDPVAAARLHPNDGVRIVRALEVFLLTGRPLSAFQEAHRFADEPYRCLKLGITVERELLYRRVEERVDRMIAEGLVEEVRGLLSAGYPATLKAMGSIGYREICAHLAGEFSLDEAMRLIKQNTRQYAKRQMTWFRRDSEIIWVEYPGKFDSILSTVMGFYHLEHHHHHH", "soluble on expression in E. coli": "soluble"}, {"sequence": "MGSDKIHHHHHHMHHWESLVGEQAIPFFRWRWLAALEDSSSISAKHGWQPLHLALWRDDMPVAVAPLYLKGHSYGEFVFDQAFARLAGDLGLGYYPKLLGMSPVSPVQGYRFYVAPGENEAELTVLMLETIDAFARRNQILSCNFLYVDPHWRPLAEAAGCATWLNQQSLWSADGQSDFSAYLNSFNANQRRNIKRERKAVQQAGLTVSALTGVELDVQLLRCMHGFYEQHCARWGPWGSKYLSEAFFEALADSSLRDQVVLFSAHRVSPREPVAMSLCIQDGQMLWGRYWGSKEEIDCLHFEVCYYAPIAWALENGLENFDPGAGGQHKRRRGFVAKPHASLHRWYEPRMDALIRGWLRKVNPLMLEEIESANADLPFRVEPAPQLIVE", "soluble on expression in E. coli": "not soluble"}, {"sequence": "MLYLAELLQGKNALITGAGRGIGRAVAIALAKEGVNVGLLARSEENLKAVAKEVEAEGVKAVIATADVSSYEEVTTAIETLKNGLGSIDILINNAGISKFGKFLELDVADWEKIIQVNLMGVYYATRAALPSMIEQQSGDIINISSTAGQKGAPVTSAYSASKFGVLGLTESLAMEVRKHNIRVTALTPSTVATDMAVDLGLTDGNPDKVMQAEDIAEFIVAQLKLNKRTFIKSAGLWSTNP", "soluble on expression in E. coli": "not soluble"}, {"sequence": "MGSDKIHHHHHHMSRRTQIADMRLSSGVPGFDELIEGGLLPNRLYVVSGPPGSGKTTFCSQFITQGVKEGETCLYVTMHETKTELMQDMAGYDFGFDRAMQSDAIQFLNLVTESGKRTITQFGNEGGLTNRLVAYIRQNDIQRVVIDSTMLLQHFMADVEDEITGFLSALKQTDATTLLISEMTDPSSYSDEHYLAHGVVFFHNFLENGSMTRGVQVIKMRGTAIDCDIREISFSDAGLQVHTDRKVET", "soluble on expression in E. coli": "not soluble"}, {"sequence": "MGSDKIHHHHHHSDQYSTETFWKTKEHASAGIMGCYNALKLWRSLHTMEFDMLTANAMPYNEANGTQAIGKGEHLSTTALIGSLWKNCYVGIGRTNTFIANVGGVDMDESEKAKMVGEAKFLRAFYYLSLVDKFGGVPLIIDAPNADEQAELPRNSKEEVVNQIVKDLEEAAAVLPDTYASSDLGRATKGAALALKARTLLYNSRWAEAAQAAKQVMESGVYQLFNDYRHFFSEDNKYNCEVIFDIEAKLPEYPTDYDQNIWRLNRPAPLKELVDTYLCVDGKTIEESPLYDPTRPYENRDPRLLKSIVCIGYPYLGKTITKEDVATTGFGVKKYTSYEDDVTIPLVERSAFNFILIRYAEVLLTYAEAQNEASGPDQSVYDAINQLRRRPDINMPEVPKGLTKDQMREVIRRERRIELTFEGLYYSDILRWKTAEKENNGMMHNYEGIEVVKRSFNPKRDYLWPIPYNQTVLNPNLEQNPNWD", "soluble on expression in E. coli": "not soluble"}, {"sequence": "MAEIFRIPEEKFRDKVHKSLEENVTWVERETGRLPSYEEVEEFLVEEFSKVIPFEGEEPVPEEAIELADKLKEEFTSEEVLLEDTGRKHRAIKLREGVYLRTAVHKAQGGLIRTEVYTDGEVIERVKIYGDFTLYPKESLKELEEKLKGIKFEPEEIKKVAHEFLQKVDMPGVSAEDLVIAIYG", "soluble on expression in E. coli": "soluble"}, {"sequence": "MNEIKCPNCGEVFTVNESQYAELLSQVRTAEFDKELHDRMKQELALAEQKAMNEQQTKLAQKDQEIAQLQSQIQNFDTEKELAKKEVEQTSHEALLAKDKEVQLLENQLATLRLEHENQLQKTLSDLEKERDQVKNQLLLQEKENELSLASVKQNYEAQLKAASEQVEFYKNFKAQQSTKAIGESLEQYAESEFNKVRSFAFPNAYFEKDNKVSSRGSKGDFIFRECDENGVEIISIMFEMKNEADGTEKKHKNADFYKELDKDRREKNCEYAVLVTMLEADNDYFNTGIVDVSHEYEKMYVVRPQFFIQLIGLLRNAALNSLKYKQELALVREQNIDITHFEEDLDAFKLAFAKNYNSASTNFGKAIDEIDKAIKRMEEVKKFLTTSENQLRLANNKLEDVSVKKLTRKNPTMKAKFEALKGE", "soluble on expression in E. coli": "not soluble"}, {"sequence": "MGSDKIHHHHHHMTALRQDIDPNGLLEYSVVYTDRALNHMSKAFQEVMNDLLSNLKTVYNAEAAVIIPGSGTYGMEAVARQLTIDEDCLIIRNGWFSYRWTQILEKGKFAKSSTVLTAERTEDTEAPKPFAPVDIETAVAKIKEDKSAIVYAPHVETSSGIILSEEYIKALSEAVHSVGGLLVIDCIASGCVWLDMKELGIDVLISAPQKGWSSTPCAGLVMLSAAAIKKVESTESNCFSLDLKQWLTIMRAYENGGHAYHATMPTDSLRQFRDAILEAKEIGFDILRDAQWELGNRVRKVLTDKGIESVAAEGFEAPGVVVSYTERDDMHKGSAFAEAGLQIAAGVPLKVGEPDNFKTFRLGLFGLDKLTDIDGTVERFEKALDEVLAK", "soluble on expression in E. coli": "not soluble"}, {"sequence": "MTKRGPDDLQLSLRNGVGGASTTAPGVAAAAYYANVMTADSEPKKAKLDPTLYSSQFYTPAMHHGLMTADASTVAAVTAAANATTAQLLTGNPITQIQGIQLSTLPQCNSTSAVTSIPVSKVVHVRNIPPDLVDVELMQLCIQYGPVSNYMMLKGKSQAFVEYEEEASAAAFVSGMTAVPIQIRGRTLFAQYSTHRELKFDKNKAISDTESVANGSVSNFEVGTQQQPNSVLRTIIENMMFPVSLDVLYQLFTRYGKVLRIITFNKNNTFQALVQMSEANSAQLAKQGLENQNVYNGCCTLRIDYSKLSTLNVKYNNDKSRDYTNPNLPAGEMTLEQTIAMSIPGLQNLIPANPYNFAFGANPATTFLTTQLAASTAAAAAVNDSANAAALAPYLNPLGLTSANLAPSISSMRFPMINLTPVILVSNLHEMKVTTDALFTLFGVYGDVMRVKILYNKKDNALIQYSEPQQAQLALTHLDKVKWHDRLIRVAPSKHTNVQMPKEGQPDAGLTRDYAHSTLHRFKKPGSKNYLNIYPPCATLHLSNIPTSVSEEKLKEMFAEAGFAVKAFKFFPKDHKMALCQLEDIETAIDALIAMHNHKLAENAHLRVSFSKSGI", "soluble on expression in E. coli": "not soluble"}]}]}
